The results in this text go back to publication PMC8631942.

The target of one assay is SHP1 (UniProt P29350). The experiment in a line: GFP-Trap co-IP, SHP1 blot. Particulars: reference: BTLA wild type.
A further assay concerns the target SHP2 (UniProt Q06124). The experiment in a line: GFP-Trap co-IP, SHP2 blot. Particulars: reference: BTLA wild type.

Turning to “BTLA (from UniProt Q7Z6A9) BTLAYYFY (Y257F)”, the “binding against the reference” value in the assay with SHP1 (sites Y257) and with SHP2 (sites Y257) was “lost” in each case.
Consider “BTLA (from UniProt Q7Z6A9) BTLAYYYF (Y282F)”, for which the “binding against the reference” value in the assay with SHP1 (sites Y282) and with SHP2 (sites Y282) was “lost” in each case.
